{"source": "paper PMC3141240", "binders": {"B1": {"name": "dsDNA-5'P (dsDNA)", "DNA 1": "GGGGATCCTCCCAGTCGACC", "DNA 2": "GGTCGACTAGGAGGATCCCC", "modifications": "5' phosphate on strand 1"}, "B2": {"name": "ssRNA-5'P (ssRNA)", "RNA": "UGGUUUACAUGUUCCAAUAUU", "modifications": "5' phosphate"}, "B3": {"name": "dsRNA-5'P (dsRNA)", "RNA 1": "UGGUUUACAUGUUCCAAUAUU", "RNA 2": "AAUAUUGGAACAUGUAAACCA", "modifications": "5' phosphate on strand 1"}}, "data": [{"molecular_target": "T1, KSHV SOX (alkaline exonuclease) (Kaposi's sarcoma-associated herpesvirus …, UniProt P88925 1-486)", "T1 sequence": "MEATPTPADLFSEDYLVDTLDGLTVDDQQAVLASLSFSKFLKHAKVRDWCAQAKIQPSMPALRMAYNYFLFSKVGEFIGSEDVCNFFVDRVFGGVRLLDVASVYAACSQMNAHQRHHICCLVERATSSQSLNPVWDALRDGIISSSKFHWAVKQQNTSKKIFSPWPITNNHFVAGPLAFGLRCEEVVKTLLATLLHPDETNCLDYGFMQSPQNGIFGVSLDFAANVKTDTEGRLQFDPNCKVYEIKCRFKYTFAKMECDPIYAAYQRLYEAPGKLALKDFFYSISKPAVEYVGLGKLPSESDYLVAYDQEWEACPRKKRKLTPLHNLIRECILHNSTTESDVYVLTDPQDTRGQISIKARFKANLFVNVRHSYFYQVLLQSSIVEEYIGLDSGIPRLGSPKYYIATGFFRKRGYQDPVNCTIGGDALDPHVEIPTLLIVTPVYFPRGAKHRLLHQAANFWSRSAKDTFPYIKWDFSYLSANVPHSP", "assay": "fluorescence anisotropy", "units": {"Kd": "µM"}, "values": [{"binder": "B1", "Kd": 6}, {"binder": "B2", "Kd": 87}, {"binder": "B3", "Kd": 95}]}]}
